Assay [1] concerns the target C3b purified from plasma of donor D3 by the novel direct method (human) (UniProt P01024). The experiment in a line: SPR; C3b biotinylated at the thioester sulfhydryl, immobilised on SA sensor chip (950-1050 RU); analytes injected 2 min at 30 µl/min; 25°C; PBS, 0.05% Tween20, 1 mM MgCl2; 1:1 steady-state model; Biacore X100.
In assay [2] the target is C3b (commercial), Complement Technology (human) (UniProt P01024). The assay is described as above.
The target in assay [3] is C3b purified from plasma of donor D1 by the novel direct method (human) (UniProt P01024). Described as above.
Assay [4] deals with C3b purified from plasma of donor D2 by the novel direct method (human) (UniProt P01024). The description is as above.
The target in assay [5] is C3b purified from plasma of donor D3 by the novel direct method (human) (UniProt P01024). The experiment in a line: SPR; on-chip convertase assay: 600 nM FB and 100 nM FD injected 3 min over biotinylated C3b on SA chip, 10 min dissociation; 25°C; PBS, 0.05% Tween20, 1 mM MgCl2; exponential decay fit of 200-780 s; mean of three curves; 'estimated'.
Assay [6] addresses C3b (commercial), Complement Technology (human) (UniProt P01024). The description is as above.
Assay [7] deals with C3b purified from plasma of donor D1 by the novel direct method (human) (UniProt P01024). The assay is described as above.
In assay [8] the target is C3b purified from plasma of donor D2 by the novel direct method (human) (UniProt P01024). Described as above.

What is called Kd is the concentration at which binding is half-saturated. Read a high Kd as a looser complex. Take “variable domain of the complement receptor of the immunoglobulin superfamily (domain or fragment)”: the dissociation constant Kd in assay [1] was found to be 795 nM; in assay [2], 754 nM; in assay [3], 860 nM; in assay [4], 944 nM.

Regarding “complement Factor H CCPs 19-20 (domain or fragment)”, the Kd in assay [1] is 10600 nM; in assay [2] it was 9300 nM; in assay [3] it was 10500 nM; in assay [4] it was 10400 nM.

Take “complement receptor 1 (CR1) complement control protein (CCP) domains 15-17 (domain or fragment)”: the dissociation constant (Kd) in assay [1] worked out at 438 nM; in assay [2], 476 nM; in assay [3], 485 nM; in assay [4], 650 nM.

The koff is a measure of how fast the partners let go of each other. Take “Bb fragment of Factor B in the alternative pathway convertase C3bBb (from UniProt P00751 260-764) (domain or fragment)”: the koff in assay [5] is 0.0019 s⁻¹; in assay [6], 0.0019 s⁻¹; in assay [7] it was 0.002 s⁻¹; in assay [8] it was 0.002 s⁻¹.

The values above are taken from PMC12417186.
